# B1: Porcine Amylase: Amylase enzyme from porcine (protein, UniProt P00690 16-511, looked up)
# Pancreatic alpha-amylase: QYAPQTQSGRTSIVHLFEWRWVDIALECERYLGPKGFGGVQVSPPNENIVVTNPSRPWWERYQPVSYKLCTRSGNENEFRDMVTRCNNVGVRIYVDAVINHMCGSGAAAGTGTTCGSYCNPGNREFPAVPYSAWDFNDGKCKTASGGIESYNDPYQVRDCQLVGLLDLALEKDYVRSMIADYLNKLIDIGVAGFRIDASKHMWPGDIKAVLDKLHNLNTNWFPAGSRPFIFQEVIDLGGEAIQSSEYFGNGRVTEFKYGAKLGTVVRKWSGEKMSYLKNWGEGWGFMPSDRALVFVDNHDNQRGHGAGGASILTFWDARLYKVAVGFMLAHPYGFTRVMSSYRWARNFVNGQDVNDWIGPPNNNGVIKEVTINADTTCGNDWVCEHRWRQIRNMVWFRNVVDGQPFANWWANGSNQVAFGRGNRGFIVFNNDDWQLSSTLQTGLPGGTYCDVISGDKVGNSCTGIKVYVSSDGTAQFSISNSAEDPFIAIHAESKL
# B2: Porcine Lipase: Lipase enzyme from porcine (protein, UniProt P00591 1-450, looked up)
# Pancreatic triacylglycerol …: SEVCFPRLGCFSDDAPWAGIVQRPLKILPWSPKDVDTRFLLYTNQNQNNYQELVADPSTITNSNFRMDRKTRFIIHGFIDKGEEDWLSNICKNLFKVESVNCICVDWKGGSRTGYTQASQNIRIVGAEVAYFVEVLKSSLGYSPSNVHVIGHSLGSHAAGEAGRRTNGTIERITGLDPAEPCFQGTPELVRLDPSDAKFVDVIHTDAAPIIPNLGFGMSQTVGHLDFFPNGGKQMPGCQKNILSQIVDIDGIWEGTRDFVACNHLRSYKYYADSILNPDGFAGFPCDSYNVFTANKCFPCPSEGCPQMGHYADRFPGKTNGVSQVFYLNTGDASNFARWRYKVSVTLSGKKVTGHILVSLFGNEGNSRQYEIYKGTLQPDNTHSDEFDSDVEVGDLQKVKFIWYNNNVINPTLPRVGASKITVERNDGKVYDFCSQETVREEVLLTLNPC
# How the values were obtained:
# Assay type in all cases: biochemical
# [1] = Amylase enzyme analysis, Benedict's Test, substrate Dextrose; details: enzyme 1 mg/ml, 10 minutes, pH 7, 38° C., 580 nm, n = 4
# Experimental: (§1) Amylase enzyme from porcine and Bacillus amyloliquefaciens at 1 mg/ml concentration and a control of no enzymes were subjected to the Benedict's Test for 10 minutes at pH 7, 38° C., followed by spectrophotometric analysis at […].
# [2] = Amylase enzyme analysis, Benedict's Test, substrate Maltose; details: enzyme 1 mg/ml, 10 minutes, pH 7, 38° C., 580 nm, n = 4
# Experimental: as §1
# [3] = Amylase enzyme analysis, Benedict's Test, substrate Starch; details: enzyme 1 mg/ml, 10 minutes, pH 7, 38° C., 580 nm, n = 4
# Experimental: as §1
# [4] = Lipase enzyme analysis, free fatty acid (Phenolphthalein) Test; details: substrate Fat / Vegetable oil; enzyme 1 mg/ml; 480 nM; n = 4
# Experimental: Lipase enzyme from porcine and Rhizopus oryzae at 1 mg/ml concentration and a control of no enzymes were subjected the free fatty acid (Phenolphthalein) Test followed by spectrophotometric analysis at […].
Molecule,"absorbance, Benedict's Test [1]","absorbance, Benedict's Test [2]","absorbance, Benedict's Test [3]","absorbance, free fatty acid (Phenolphthalein) Test [4]"
B1,3.078 +/− 0.13,3.108 +/− 0.15,2.087 +/− 0.11,–
B2,–,–,–,3.17 +/− 0.11

# Source: patent US20230118104A1, “COMPOSITIONS AND METHODS FOR TREATING PANCREATIC ENZYME DEFICIENCIES IN MAMMALS” (Vets Plus, Inc., priority 2018, published 2023)
